Assay results from article PMC8163982, “Partial agonism improves the anti-hyperglycaemic efficacy of an oxyntomodulin-derived GLP-1R/GCGR co-agonist” (Molecular Metabolism, 2021).
Where a SMILES comes first, the peptide text is derived from it. [ ]: non-standard residue; d: D form. Aib = CC(C)(N)C(=O)O

How the values were obtained:
GCGR [1] = molecular target: T1, GCGR (Homo sapiens, UniProt P47871); test: NanoBiT mini-Gs recruitment to GCGR-SmBiT in HEK293T cells; type: cell-based; parameters: expressed in transfected cells; host or cells: HEK293T
GCGR [2] = molecular target: T1, GCGR; test: NanoBiT β-arrestin-2 recruitment to GCGR-SmBiT in HEK293T cells; type: cell-based; parameters: expressed in transfected cells; host or cells: HEK293T
[3] = molecular target: GCGR-SmBiT (glucagon receptor) (UniProt P47871)
[4] = molecular target: GLP-1R-SmBiT (glucagon-like peptide-1 receptor) (UniProt P43220)
Huh7-GCGR cells = test: Fluorescent TMR-ligand internalisation in Huh7-GCGR cells (high content imaging); type: cell-based, human; conditions: 100 nM, 30 min, n = 4
Procedure: Huh7-GCGR cells were seeded in black clear-bottom plates coated with 0.1% poly-D-lysine and assayed 24 h later. Then 100 nM of fluorescent TMR-conjugated agonist or vehicle was applied for 30 min. The cells were then washed with cold HBSS and incubated for 5 min in cold acetic acid +150 mM of NaCl buffer at a pH of 2.9 to strip surface ligands. After a final wash, the cells were resuspended in HBSS and the fluorescent ligand uptake was measured and quantified by high content imaging as described in Section 2.9.

mouse pancreatic islets = test: Fluorescent TMR-ligand uptake in mouse pancreatic islets; type: cell-based; conditions: 100 nM, 30 min, confocal imaging, n = 2
Procedure: Mouse pancreatic islets were isolated and left to recover overnight before being immobilised with Matrigel onto glass-bottom Mattek dishes and stimulated with 100 nM of the indicated TMR-modified agonist for 30 min. Z stacks were recorded for the whole islet volume on a Zeiss LSM780 inverted confocal microscope with a 20× air objective and 1 μm of separation between optical slices.

[5] = molecular target: GLP-1R-SmBiT (glucagon-like peptide-1 receptor) (UniProt P43220); test: split reporter (BiFC, NanoBiT); HEK293T cells co-transfected with receptor-SmBiT and LgBiT-mini-G or LgBiT-β-arrestin-2; in HBSS with furimazine, 37 °C; 5 min baseline, then peptide agonist added and luminescence recorded for 30 min; K@[max] from one-phase (mini-Gs) or bi-exponential (β-arrestin-2) fits at a single maximal agonist concentration
[6] = molecular target: GCGR-SmBiT (glucagon receptor) (UniProt P47871); test: as above

GCG-H3 (peptide), sequence (peptide): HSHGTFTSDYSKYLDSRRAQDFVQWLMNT
T1 sequence (P47871 26-477): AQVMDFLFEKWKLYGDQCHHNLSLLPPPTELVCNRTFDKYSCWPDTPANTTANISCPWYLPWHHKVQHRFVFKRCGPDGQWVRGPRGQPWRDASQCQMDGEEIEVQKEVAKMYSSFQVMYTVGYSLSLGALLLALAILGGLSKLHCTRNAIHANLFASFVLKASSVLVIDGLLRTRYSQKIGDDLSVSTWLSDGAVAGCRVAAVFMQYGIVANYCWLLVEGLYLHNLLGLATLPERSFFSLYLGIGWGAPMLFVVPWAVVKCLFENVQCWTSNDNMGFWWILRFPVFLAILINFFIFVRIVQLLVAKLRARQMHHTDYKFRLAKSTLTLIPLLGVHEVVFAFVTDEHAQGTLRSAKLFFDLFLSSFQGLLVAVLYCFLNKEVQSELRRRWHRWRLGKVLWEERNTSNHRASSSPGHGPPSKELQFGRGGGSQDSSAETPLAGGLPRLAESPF
GCGR-SmBiT (glucagon receptor), sequence (P47871 26-477): as above
GLP-1R-SmBiT (glucagon-like peptide-1 receptor), sequence (P43220 24-463): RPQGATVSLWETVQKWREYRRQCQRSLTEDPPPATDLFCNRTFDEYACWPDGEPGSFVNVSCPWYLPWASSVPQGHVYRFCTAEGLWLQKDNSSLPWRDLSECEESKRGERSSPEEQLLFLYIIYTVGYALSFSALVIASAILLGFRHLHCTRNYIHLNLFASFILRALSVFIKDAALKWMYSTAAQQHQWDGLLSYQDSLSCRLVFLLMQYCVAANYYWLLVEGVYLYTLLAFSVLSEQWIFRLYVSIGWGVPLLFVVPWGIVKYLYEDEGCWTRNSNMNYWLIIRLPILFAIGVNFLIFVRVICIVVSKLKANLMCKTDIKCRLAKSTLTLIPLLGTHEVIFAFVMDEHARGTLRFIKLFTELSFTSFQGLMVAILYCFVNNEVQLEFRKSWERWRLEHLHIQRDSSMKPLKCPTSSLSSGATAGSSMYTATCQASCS

CSCC[C@H](NC(=O)[C@H](CC(C)C)NC(=O)[C@H](Cc1c[nH]c2ccccc12)NC(=O)[C@H](CCC(N)=O)NC(=O)[C@@H](NC(=O)[C@H](Cc1ccccc1)NC(=O)[C@H](CC(=O)O)NC(=O)[C@H](CCC(N)=O)NC(=O)[C@H](C)NC(=O)[C@H](CCCNC(=N)N)NC(=O)[C@H](CCCNC(=N)N)NC(=O)[C@H](CO)NC(=O)[C@H](CC(=O)O)NC(=O)[C@H](CC(C)C)NC(=O)[C@H](Cc1ccc(O)cc1)NC(=O)[C@H](CCCCN)NC(=O)[C@H](CO)NC(=O)[C@H](Cc1ccc(O)cc1)NC(=O)[C@H](CC(=O)O)NC(=O)[C@H](CO)NC(=O)[C@@H](NC(=O)[C@H](Cc1ccccc1)NC(=O)[C@@H](NC(=O)CNC(=O)[C@H](Cc1c[nH]cn1)NC(=O)C(C)(C)NC(=O)[C@@H](N)Cc1c[nH]cn1)[C@@H](C)O)[C@@H](C)O)C(C)C)C(=O)N[C@@H](CC(N)=O)C(=O)N[C@H](C(=O)O)[C@@H](C)O [GCG-AIB2H3] (H-H[Aib]HGTFTSDYSKYLDSRRAQDFVQWLMNT-OH)
Emax (GCGR [1]; HEK-293T, read-out: GCGR Mini-Gs Emax): 74 ± 5% | EC50 (GCGR [1]; read-out: GCGR Mini-Gs pEC50 (converted)): 100 nM | Emax (GCGR [2]; HEK-293T, read-out: GCGR β-arrestin-2 Emax): 53 ± 2% | EC50 (GCGR [2]; read-out: GCGR β-arrestin-2 pEC50 (converted)): 251 nM

GCG-AIB2H3 (peptide)
Emax of mini-Gs recruitment to GCGR-SmBiT (NanoBiT, HEK293T, AUC over 30 min) [3]: 74 % max | Emax of β-arrestin-2 recruitment to GCGR-SmBiT (NanoBiT, HEK293T, AUC over 30 min) [3]: 53 % max | pEC50 of mini-Gs recruitment to GCGR-SmBiT (NanoBiT, HEK293T, AUC over 30 min) [3]: 7 pEC50 (M) | pEC50 of β-arrestin-2 recruitment to GCGR-SmBiT (NanoBiT, HEK293T, AUC over 30 min) [3]: 6.6 pEC50 (M)

GCG-H3 (peptide)
Emax of mini-Gs recruitment to GCGR-SmBiT (NanoBiT, HEK293T, AUC over 30 min) [3]: 66 % max | Emax of β-arrestin-2 recruitment to GCGR-SmBiT (NanoBiT, HEK293T, AUC over 30 min) [3]: 54 % max | pEC50 of mini-Gs recruitment to GCGR-SmBiT (NanoBiT, HEK293T, AUC over 30 min) [3]: 6.8 pEC50 (M) | pEC50 of β-arrestin-2 recruitment to GCGR-SmBiT (NanoBiT, HEK293T, AUC over 30 min) [3]: 6.3 pEC50 (M)

GLP-1-AIB2 (peptide)
Emax of mini-Gs recruitment to GLP-1R-SmBiT (NanoBiT, HEK293T, AUC over 30 min) [4]: 96 % max | Emax of β-arrestin-2 recruitment to GLP-1R-SmBiT (NanoBiT, HEK293T, AUC over 30 min) [4]: 68 % max | pEC50 of mini-Gs recruitment to GLP-1R-SmBiT (NanoBiT, HEK293T, AUC over 30 min) [4]: 7.9 pEC50 (M) | pEC50 of β-arrestin-2 recruitment to GLP-1R-SmBiT (NanoBiT, HEK293T, AUC over 30 min) [4]: 7.7 pEC50 (M)

Glucagon-AIB2 (GCG-AIB2) (peptide)
Emax of mini-Gs recruitment to GCGR-SmBiT (NanoBiT, HEK293T, AUC over 30 min) [3]: 54 % max | Emax of β-arrestin-2 recruitment to GCGR-SmBiT (NanoBiT, HEK293T, AUC over 30 min) [3]: 25 % max | pEC50 of mini-Gs recruitment to GCGR-SmBiT (NanoBiT, HEK293T, AUC over 30 min) [3]: 6.7 pEC50 (M) | pEC50 of β-arrestin-2 recruitment to GCGR-SmBiT (NanoBiT, HEK293T, AUC over 30 min) [3]: 6.2 pEC50 (M)

HXHGTFTSDYSKYLDAKRAQEFIEWLLAGHHHHHPS(K-TMR)W [SRB103H-TMR, SRB103H analogue conjugated to tetramethylrhodamine (TMR) close to the C-terminus]
TMR-ligand uptake in Huh7-GCGR cells (Huh7-GCGR cells): greater uptake

HXQGTFTSDYSKYLDAKRAQEFIEWLLAGHHHHHPS(K-TMR)W [SRB103Q-TMR, SRB103Q analogue conjugated to tetramethylrhodamine (TMR) close to the C-terminus]
TMR agonist uptake in mouse islets (mouse pancreatic islets): somewhat reduced compared to SRB103H-TMR

LgBiT-mini-Gs (domain or fragment)
K@[max] with GLP-1-AIB2 (association rate constant at maximal agonist stimulation) [5]: 0.21 min⁻¹ | K@[max] with SRB103H (association rate constant at maximal agonist stimulation) [5]: 0.93 min⁻¹ | K@[max] with SRB103Q (association rate constant at maximal agonist stimulation) [5]: 0.7 min⁻¹ | K@[max] with GCG (association rate constant at maximal agonist stimulation) [6]: 0.17 min⁻¹ | K@[max] with GCG-AIB2 (association rate constant at maximal agonist stimulation) [6]: 0.11 min⁻¹ | K@[max] with GCG-AIB2H3 (association rate constant at maximal agonist stimulation) [6]: 0.13 min⁻¹ | K@[max] with GCG-H3 (association rate constant at maximal agonist stimulation) [6]: 0.13 min⁻¹ | K@[max] with SRB103H (association rate constant at maximal agonist stimulation) [6]: 0.14 min⁻¹ | K@[max] with SRB103Q (association rate constant at maximal agonist stimulation) [6]: 0.13 min⁻¹
